According to publication PMC6212786 (Nucleic Acids Research, 2018):

B1: T4 sliding clamp gp45, full length (trimer) (natural protein, bacteriophage T4, UniProt P04525 1-228, looked up)
chain: MKLSKDTTALLKNFATINSGIMLKSGQFIMTRAVNGTTYAEANISDVIDFDVAIYDLNGFLGILSLVNDDAEISQSEDGNIKIADARSTIFWPAADPSTVVAPNKPIPFPVASAVTEIKAEDLQQLLRVSRGLQIDTIAITVKEGKIVINGFNKVEDSALTRVKYSLTLGDYDGENTFNFIINMANMKMQPGNYKLLLWAKGKQGAAKFEGEHANYVVALEADSTHDF

How the values were obtained:
[1] = target: T1, Full-length wild-type T4 DNA ligase (gp30) (bacteriophage T4, UniProt P00970 1-487); assay: SEC
T1 sequence (looked up): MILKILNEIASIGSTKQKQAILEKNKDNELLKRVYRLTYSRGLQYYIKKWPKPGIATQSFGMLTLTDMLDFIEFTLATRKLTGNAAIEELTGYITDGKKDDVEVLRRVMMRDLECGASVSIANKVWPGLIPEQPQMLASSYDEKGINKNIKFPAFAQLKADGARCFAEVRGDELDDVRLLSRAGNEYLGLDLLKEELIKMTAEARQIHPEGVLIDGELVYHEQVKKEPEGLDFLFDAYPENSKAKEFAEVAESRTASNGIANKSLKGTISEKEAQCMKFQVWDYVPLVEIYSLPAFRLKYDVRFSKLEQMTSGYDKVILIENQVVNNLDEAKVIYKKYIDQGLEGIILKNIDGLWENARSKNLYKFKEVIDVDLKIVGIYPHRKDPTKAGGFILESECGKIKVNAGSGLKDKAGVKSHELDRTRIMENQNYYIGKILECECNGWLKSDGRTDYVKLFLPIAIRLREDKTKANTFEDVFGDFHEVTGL

[2] = target: B1; assay: ITC

Binder	binding result [1]	Kd [2] [µM]	stoichiometry N [2] [peptides per gp45 trimer]
B1	binds		
KKEPEGLDFLFDA [T4 ligase loop peptide KKEPEGLDFLFDA]		10.7	3
